Drawing on publication PMC8009405, “POT1 stability and binding measured by fluorescence thermal shift assays”, this text covers binding signal (°C (delta Tm)), binding result and Ka for three molecules.

Series [1] deals with T1, POT1 (POT1-N) (UniProt Q9NUX5).
T1 sequence: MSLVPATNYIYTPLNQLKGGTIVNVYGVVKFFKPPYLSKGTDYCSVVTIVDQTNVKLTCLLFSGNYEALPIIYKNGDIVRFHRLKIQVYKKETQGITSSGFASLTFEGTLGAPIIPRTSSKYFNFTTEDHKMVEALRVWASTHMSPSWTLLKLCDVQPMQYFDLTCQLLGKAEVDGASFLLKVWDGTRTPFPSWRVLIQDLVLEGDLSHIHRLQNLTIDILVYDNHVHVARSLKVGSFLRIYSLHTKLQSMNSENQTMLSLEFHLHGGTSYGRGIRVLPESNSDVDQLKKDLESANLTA
Description: FTSA (SYPRO Orange). Particulars: PNA backbone; printed as TTAGGGTTAG-O; 20 mM potassium phosphate, 180 mM KCl, pH 7.2; FTSA 20-99 °C, typically 5 uM POT1 and 50 uM DNA.

The target in series [2] is T2, POT1 (POT1-N) (UniProt Q9NUX5 1-299).
T2 sequence: T1 sequence
Description: FTSA (SYPRO Orange); no appreciable Tm shift; 20 mM potassium phosphate, 180 mM KCl, pH 7.2; FTSA 20-99 °C, typically 5 uM POT1 and 50 uM DNA. Particulars: protein: recombinant; tags: C-terminal 6xHis; single strand.

The target in series [3] is T2, POT1 (POT1-N). Description: FTSA titration (SYPRO Orange), Model 1; dCp_b -4300 J/mol/K; binding enthalpy fixed at -139 kJ/mol; dG25 -66.1 kJ/mol; 20 mM potassium phosphate, 180 mM KCl, pH 7.2; FTSA 20-99 °C, typically 5 uM POT1 and 50 uM DNA. The conditions noted are these: protein: recombinant; tags: C-terminal 6xHis; single strand.
Series [4] addresses T2, POT1 (POT1-N). Description: FTSA titration (SYPRO Orange), Model 2; dCp_b fixed at 0; binding enthalpy and entropy fitted; dG25 -57.7 kJ/mol; 20 mM potassium phosphate, 180 mM KCl, pH 7.2; FTSA 20-99 °C, typically 5 uM POT1 and 50 uM DNA. Particulars: protein: recombinant; tags: C-terminal 6xHis; single strand.
Series [5] addresses T2, POT1 (POT1-N). Description: FTSA titration (SYPRO Orange), Model 3; dCp_b 0; binding entropy and unfolding enthalpy fitted; dG25 -57.9 kJ/mol; 20 mM potassium phosphate, 180 mM KCl, pH 7.2; FTSA 20-99 °C, typically 5 uM POT1 and 50 uM DNA. Particulars: protein: recombinant; tags: C-terminal 6xHis; single strand.

Molecule TTAGGGTTAG [PNA of O1] came in with a binding signal (°C (delta Tm)) in the series with POT1 (POT1-N) [1] of 1.

On to CTAACCCTAA (ssDNA) [O1c (negative control)], for which the binding result in the series with POT1 (POT1-N) [2] is listed as “no binding”.

Take TTAGGGTTAG (ssDNA) [O1]: the results for the Ka in the series with POT1 (POT1-N) [3], in the series with POT1 (POT1-N) [4] and in the series with POT1 (POT1-N) [5] were 4e+11 M⁻¹, 1e+10 M⁻¹ and 1e+10 M⁻¹, respectively.
